# Test results from article PMC3564530 (Molecular Biology of the Cell, 2013).
# Molecular target: recombinant his6-tagged linear penta-Ub (Ub5) (UniProt P0CG48)
# Assay: pull-down
# Chain of recombinant his6-tagged linear penta-Ub (Ub5) (P0CG48 1-380): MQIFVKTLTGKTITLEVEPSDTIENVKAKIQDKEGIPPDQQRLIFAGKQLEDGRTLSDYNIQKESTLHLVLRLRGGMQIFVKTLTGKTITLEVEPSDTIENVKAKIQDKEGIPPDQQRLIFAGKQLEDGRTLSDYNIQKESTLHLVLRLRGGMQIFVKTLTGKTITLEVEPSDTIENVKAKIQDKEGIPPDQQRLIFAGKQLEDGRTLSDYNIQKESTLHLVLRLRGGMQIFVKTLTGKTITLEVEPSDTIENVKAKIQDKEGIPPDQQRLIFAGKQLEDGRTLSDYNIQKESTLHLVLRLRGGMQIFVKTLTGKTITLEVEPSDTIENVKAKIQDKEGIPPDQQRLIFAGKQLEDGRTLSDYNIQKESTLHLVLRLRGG
binder,measurement,value
recombinant purified GST-CIN exon 2 (domain or fragment) TGSLAAAVETASGRQALVVGKPSPYMFECITENFSIDPARTLMVGDRLETDILFGHRCGMTTVLTLTGVSRLEEAQAYLAAGQHDLVPHYYVESIADLTEGLED,binding result,binds
